Legend:
[1] = target: Chlamydomonas ferredoxin:NAD(P) reductase I (CrFNR1) (Chlamydomonas reinhardtii) (UniProt P53991)
[2] = target: Chlamydomonas [FeFe]-hydrogenase HYDA1 (CrHYDA1) (Chlamydomonas reinhardtii)

Sequence of UniProt P53991 (P53991 36-354): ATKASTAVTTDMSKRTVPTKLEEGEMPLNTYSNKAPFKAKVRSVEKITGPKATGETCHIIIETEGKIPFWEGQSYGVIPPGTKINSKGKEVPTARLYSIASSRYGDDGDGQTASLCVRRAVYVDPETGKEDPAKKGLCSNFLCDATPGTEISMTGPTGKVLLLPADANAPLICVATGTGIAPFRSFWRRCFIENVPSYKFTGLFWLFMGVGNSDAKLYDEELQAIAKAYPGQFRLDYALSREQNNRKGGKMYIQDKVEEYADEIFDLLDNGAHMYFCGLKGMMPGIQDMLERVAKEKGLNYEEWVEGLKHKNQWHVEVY

| Substance | Km for the ferredoxin in FNR1-catalysed NADPH photo-production (thylakoids, 0.5 μM FNR1, varied FDX, Lineweaver-Burk) [1] | hydrogen photo-production rate (thylakoids, 100 nM HYDA1, light, gas chromatography) [2] | catalytic efficiency kcat/Km of FNR1-catalysed NADPH photo-production with this ferredoxin [1] | hydrogen photo-production rate (thylakoids, 100 nM HYDA1, light, gas chromatography) (µmol H2/µg Chl/h) [2] |
| --- | --- | --- | --- | --- |
| CrFDX2 (∇95Y) (natural protein) | 0.38 µM | 134 |  |  |
| Chlamydomonas reinhardtii ferredoxin 2 (CrFDX2), mature, wild type, tag cleaved (natural protein) | 0.18 µM | 86 | 3.5e+09 M⁻¹ s⁻¹ |  |
| Chlamydomonas reinhardtii ferredoxin 1 (CrFDX1), mature, tag cleaved (natural protein) | 0.4 µM | 489 | 1.7e+09 M⁻¹ s⁻¹ |  |
| CrFDX2 (M62F/∇95Y) (natural protein) | 3.44 µM | 264 |  |  |
| CrFDX2 (M62F) (natural protein) | 0.69 µM |  |  | 150 |

— publication PMC4791469
